Test in all cases: EMSA; MST: 20 mM PBS pH 7.5, 300 mM NaCl, 0.05% Tween 20, 25 C, 50 nM RNA; EMSA: 20 mM Tris-HCl pH 7.5, 300 mM NaCl, 5 mM b-mercaptoethanol, 20% glycerol, agarose gel in Tris-glycine pH 8.0 (8.5 for FAM-RNA), 4 C
(In general: A gel shift assay detects complexes by their altered migration in electrophoresis.)

The target of series [1] is T1, KAE1;BUD32 L165K;CGI121;PCC1 (Arabidopsis thaliana;Arabidopsis …, UniProt O49653;Q94K14;Q6NMZ4;Q8GWD7 1-353;1-226;1-172;1-96, |L165K||).
T1 sequence 1: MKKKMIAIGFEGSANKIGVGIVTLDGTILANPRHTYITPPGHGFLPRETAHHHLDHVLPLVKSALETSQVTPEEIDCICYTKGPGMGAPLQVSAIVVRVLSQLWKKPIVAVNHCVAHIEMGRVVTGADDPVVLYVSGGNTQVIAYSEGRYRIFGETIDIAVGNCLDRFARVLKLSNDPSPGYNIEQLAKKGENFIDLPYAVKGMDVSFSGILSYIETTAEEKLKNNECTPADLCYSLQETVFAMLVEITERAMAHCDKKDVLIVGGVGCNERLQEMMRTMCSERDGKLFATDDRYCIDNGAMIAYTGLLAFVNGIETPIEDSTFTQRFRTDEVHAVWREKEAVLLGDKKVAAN
T1 sequence 2: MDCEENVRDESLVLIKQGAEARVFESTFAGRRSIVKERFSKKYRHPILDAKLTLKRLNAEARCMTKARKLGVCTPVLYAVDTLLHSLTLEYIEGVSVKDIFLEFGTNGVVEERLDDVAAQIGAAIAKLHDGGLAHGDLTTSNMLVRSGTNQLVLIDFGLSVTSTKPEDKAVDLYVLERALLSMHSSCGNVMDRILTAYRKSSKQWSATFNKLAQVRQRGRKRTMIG
T1 sequence 3: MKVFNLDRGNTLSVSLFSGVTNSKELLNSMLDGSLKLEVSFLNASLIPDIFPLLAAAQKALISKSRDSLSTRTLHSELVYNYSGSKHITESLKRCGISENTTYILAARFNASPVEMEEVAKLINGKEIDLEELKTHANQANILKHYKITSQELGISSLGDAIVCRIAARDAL
T1 sequence 4: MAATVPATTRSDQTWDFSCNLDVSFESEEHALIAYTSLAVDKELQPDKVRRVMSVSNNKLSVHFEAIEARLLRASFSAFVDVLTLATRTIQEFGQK
Conditions: protein: recombinant;recombinant;recombinant;recombinant; tags: none (6His on partner PCC1);;6His (C-term);6His (C-term); chain copies: 2;2;2;2; label: 5' 6-FAM; tRNA cloverleaf.

A further series deals with T2, CGI121 (Arabidopsis thaliana, UniProt Q6NMZ4 1-172).
T2 sequence: T1 sequence 3
Conditions: protein: recombinant; tags: 6His (C-term); label: 5' 6-FAM; tRNA cloverleaf.

In series [2] the target is T3, KAE1;BUD32 I47K;CGI121;PCC1 (Arabidopsis thaliana;Arabidopsis …, UniProt O49653;Q94K14;Q6NMZ4;Q8GWD7 1-353;1-226;1-172;1-96, |I47K||).
T3 sequence 1: T1 sequence 1
T3 sequence 2: T1 sequence 2 with I47K, K165L
T3 sequence 3: T1 sequence 3
T3 sequence 4: T1 sequence 4
To be noted: protein: recombinant;recombinant;recombinant;recombinant; tags: none (6His on partner PCC1);;6His (C-term);6His (C-term); chain copies: 2;2;2;2; label: 5' 6-FAM; tRNA cloverleaf.

The next series concerns the target T4, KAE1;PCC1 (Arabidopsis thaliana;Arabidopsis …, UniProt O49653;Q8GWD7 1-353;1-96, |).
T4 sequence 1: T1 sequence 1
T4 sequence 2: T1 sequence 4
Conditions: protein: recombinant;recombinant; tags: none (6His on partner PCC1);6His (C-term); chain copies: 2;2; label: 5' 6-FAM; tRNA cloverleaf.

In series [3] the target is T5, KAE1;BUD32 R220stop;CGI121;PCC1 (Arabidopsis thaliana;Arabidopsis …, UniProt O49653;Q94K14;Q6NMZ4;Q8GWD7 1-353;1-219;1-172;1-96, |del220-226||).
T5 sequence 1: T1 sequence 1
T5 sequence 2: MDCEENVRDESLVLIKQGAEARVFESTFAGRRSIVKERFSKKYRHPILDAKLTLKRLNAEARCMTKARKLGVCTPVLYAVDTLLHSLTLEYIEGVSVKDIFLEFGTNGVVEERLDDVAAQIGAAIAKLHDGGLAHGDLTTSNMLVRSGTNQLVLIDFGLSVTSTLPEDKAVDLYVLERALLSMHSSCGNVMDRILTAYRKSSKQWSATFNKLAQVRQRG
T5 sequence 3: T1 sequence 3
T5 sequence 4: T1 sequence 4
To be noted: protein: recombinant;recombinant;recombinant;recombinant; tags: none (6His on partner PCC1);;6His (C-term);6His (C-term); chain copies: 2;2;2;2; label: 5' 6-FAM; tRNA cloverleaf.

Residue numbers refer to the chain shown, from its start.

B1: 5'-6FAM-tRNAArgCCU (structured_RNA)
RNA: GCGCCUGUAGCUCAGUGGAUAGAGCGUCUGUUUCCUAAGCAGAAGGUCGUAGGUUCGACCCCUACCUGGCGCGCCA
For the molecule B1, the binding result in series [1] is reported as “binds”; in the series with CGI121 it was “no binding”; in series [2] it was “binds”; in the series with KAE1;PCC1, “no binding”; in series [3], “binds”.

These data come from publication PMC11077089, “Molecular basis of A. thaliana KEOPS complex in biosynthesizing tRNA t6A”.
